From patent US20180252712A1, “RECEPTOR FOR NOROVIRUS AND USES THEREOF” (priority 2017, published 2018)

Legend:
[1] = test system: MNoV^CW3; assay: MNoV binding assay to BV2 cells (bound genomes by qPCR); assay type: cell-based, murine norovirus
Description: MNoV^CW3 quantitiatve PCR (qPCR) was performed as previously described. Briefly, 5 μl of extracted viral RNA was used for cDNA synthesis using random hexamers and ImProm Reverse Transcriptase (Promega, Madison, Wis.) in 20 μl total volume. TaqMan qPCR was performed in triplicate on each sample and standard with forward primer SEQ ID NO:20 (5′ […] 3′), reverse primer SEQ ID NO:21 (5′ GCGCTGCGCCATCACTC 3′), and probe.
MNoV^CW3 binding to BV2 cells was performed for 1 hour at 4° C. in 0.5 ml complete growth media. sCD300lf was incubated with MNoV^CW3 for 30 minutes at room temperature prior to addition to cells. α-CD300lf was incubated with cells for 30 minutes at 4° C. prior to the addition of MNoV^CW3. BV2 cells were used at final concentration of 2×10^6 cells/ml, and MNoV^CW3 was used at a final concentration of 1.6×10^9 copies/ml (2.5×10^6 PFU/ml). Cells were centrifuged at 500 g for 5 min at 4° C. to remove unbound virus. Cells were washed with four 1.0 ml washes with PBS containing 2.5% FBS and 2 mM EDTA. The cell pellet was resuspended in 100 μl PBS, and RNA was extracted with the ZR Viral RNA kit (Zymo Research) according to manufacturer instructions. qPCR was performed as described above. Binding experiments were done in triplicate in each of at least three independent experiments. A condition containing virus but no cells was used to determine assay background.
(§1) To determine the effect of glycans on MNoV binding, parental BV2 cells, ΔCD300lf BV2 clone 1 cells complemented with an empty lentivirus, and ΔCD300lf BV2 clone 1 cells complemented with CD300lf were cultured in the presence of 1 μg/ml of kifunensine (Santa Cruz Biotechnology) for at least 48 hours prior to use. Kifunensine activity was determined by staining cells with FITC-conjugated wheat germ agglutinin (WGA) at 1 μg/ml final concentration (Sigma Aldrich). The reduction in glycosylation was determined by comparing the mean fluorescence intensity (MFI) with and without kifunensine treatment. WGA binding was determined at the time of each binding assay.

[2] = test system: BV2 cells; assay: Kifunensine treatment, WGA-FITC staining of cell surface carbohydrates; assay type: cell-based, mouse; details: 1 μg/ml kifunensine for at least 48 hours
Description: as §1

[3] = test system: MNoV^CW3; assay: Spleen-derived MNoV neutralization (plaque assay); assay type: cell-based, murine norovirus; details: 75 PFU spleen-derived or BV2-derived virus, 10 μg/ml, 30 min preincubation
Description: BV2 cells were seeded at 1×10^6 cells/well of a six-well plate. 16-24 hours later, media was removed and 10-fold dilutions of cell lysate is applied to each well for 1 hour with gentle rocking. Viral inoculum was removed and 2 ml of overlay media was added (MEM, 10% FBS, 2 mM L-Gluatmine, 10 mM HEPES, and 1% methylcellulose). Plates were incubated for 2-3 days prior to visualization with crystal violet solution (0.2% crystal violet and 20% ethanol).
To isolate in vivo derived MNoV^CW3, five 7-8 week old C57BL/6J were inoculated PO with 10^6 PFU MNoV^CW3 in 25 μl PBS. Three days post inoculation, mice were sacrificed and spleens were harvested. Spleens were processed by bead beating with 1 mm silica beads (Biospec, Bartlesville, Okla.) for 1 minute. The spleen extract was centrifuged for 5 minutes at 3,000 g, the supernatant was filtered through a 0.22 μm filter, frozen at −80° C., and titered on BV2 cells as described previously.
75 PFU of either BV2 cell-derived or spleen-derived MNoV^CW3 was incubated for 30 min. at room temperature with either sCD300lf or WNV E DIII at 10 μg/ml final concentration in 100 μl total volume of D10. Each sample was then added to a confluent monolayer of BV2 cells in a 6-well plate and incubated for 1 hr. at room temperature. […] Complete media containing methylcellulose was then added and plaque formation was assessed as described previously. […]

[4] = test system: MNoV^CW3; assay: BMDM infection, FACS for intracellular MNoV NS1/2 expression; assay type: cell-based, murine norovirus; details: virus preincubated with sCD300lf or cells treated with α-CD300lf; MOI 5.0
Description: BL6 myeloid progenitors were obtained from mice (FIG. 2E) or from HoxB8-immortalized progenitors (FIG. 2D) as previously described.HoxB8-immortalized progenitors were maintained in RPMI 1640 supplemented with 1 μM β-estradiol and 25 ng/ml GM-CSF. Progenitors were differentiated into macrophages by washing the cells in PBS and plating 1×10^6 cells into BMDM media (Dulbeco's Modified Eagle Medium, 10% fetal bovine serum, 5% horse serum, 10% CMG14-12 [6], 1 mM sodium pyruvate, 2 mM L-glutamine). After 7 days of differentiation, macrophages were dissociated and 5×10^6 cells/well were seeded into a 6-well dish. Three days later, MNoV^CW3 was added to cells at an MOI of 5.0. One day post infection, MNoV NS1/2 expression was detected by flow cytometry.
Infected cells were fixed and permeabilized with Cytofix/Cytoperm (BD biosciences) Rabbit polyclonal antibody targeting the MNoV nonstructural protein NS1/2 antibody was added at a 1:5000 dilution (Gift from Vernon Ward). Cells were incubated for 30 min. at room temperature. Cells were then washed and DyLight 649 donkey anti-rabbit IgG was added and incubated for 30 min. Cells were then washed and analyzed on an LSRII flow cytometer (BD). At least 20,000 events were collected per condition. Each experiment was performed in triplicate in each of three independent experiments.

[5] = test system: MNoV^CW3; assay: MNoV neutralization with α-CD300lf and sCD300lf (cytotoxicity, CellTiter-Glo); assay type: cell-based, murine norovirus; details: virus preincubated with protein, 0.01 to 10 μg/ml; 24 hours post-infection
Description: MNoV neutralization was assessed by measuring cytotoxicity. 2.5×10^4 BV2 cells were plated per well of a 96-well plate. For antibody-mediated neutralization, cells were then incubated for 1 hour at 37° C. with polyclonal α-CD300lf (R&D systems AF2788) or an isotype control (R&D systems AB-108-C) at a final concentration from 0.01 to 10 μg/ml. MNoV^CW3 was then added at an MOI of 5 in a total volume of 100 μl. After 24 hours at 37° C., 25 μl of CellTiter-Glo (Promega) was added per well to measure cellular ATP concentrations. For sCD300lf neutralization, the assay was performed similarly except that 1.25×10^5 PFU of MNoV^CW3 was incubated with sCD300lf or a control protein (Domain III of West Nile Virus Envelope) at a final concentration from 0.01 μg to 10 μg/ml prior to addition of BV2 cells. Relative luminescence units were detected on Molecular Devices SpectraMax M2 plate reader. All conditions were normalized to an uninfected control. Each condition was done in quadruplicate in each of three independent experiments.

[6] = test system: MNoV^CW3; assay: Challenge of STAT1−/− mice with preincubated MNoV^CW3, survival; assay type: in vivo, murine norovirus; details: PO 10^3 or 10^5 PFU MNoV^CW3 preincubated at 10 μg/ml, 28 days
Description: B6.129S(Cg)-Stat1^tm1Div/J (STAT1^−/−) mice and C57BL/6J (Jackson Laboratories, Bar Harbor, Me.) and Fut2^−/− (B6.129X1-Fut2^tm1Sdo/J) mice (a generous gift from Dr. Alexander V. Chervonsky) were housed in a specific-pathogen free environment at Washington University. The care and use of all animals was approved by and in accordance with the Washington University Animal Studies Committee. For the challenge of STAT^−/− mice, MNoV^CW3 was incubated with sCD300lf or WNV E DIII at a final concentration of 10 μg/ml for 30 minutes at room temperature. STAT1^−/− mice were challenged with 25 μl PO of 10^3 or 10^5 PFU of MNoV^CW3 diluted in D10. STAT1^−/− mice were singly housed immediately after inoculation and monitored daily for survival for 28 days. Experiments were performed three independent times with gender-balanced littermate controls at both 10^3 and 10^5 PFU challenge doses.

Molecule | MNoV^CW3 binding to kifunensine treated cells ([1]; wild type or CD300lf-mutant BV2 cells, 1 μg/ml kifunensine) | Cell surface carbohydrates (WGA-FITC binding, MFI) [2] | Neutralization of MNoV isolated from spleens of MNoV^CW3-infected mice (plaque assay) [3] | MNoV^CW3 infection of primary bone marrow-derived macrophages (NS1/2 expression by FACS) [4] | MNoV^CW3-induced cytopathic effect in BV2 cells (cell viability) [5] | MNoV^CW3 binding to BV2ΔCD300lf cells ([1]; BV2ΔCD300lf cells, cells treated with α-CD300lf or virus premixed with sCD300lf) | MNoV^CW3 binding to BV2 cells ([1]; wild type BV2 cells, cells treated with α-CD300lf or virus preincubated with sCD300lf, 1 hour at 4° C.) | Protection from MNoV induced lethality (survival) [6]
O=C1N[C@@H]2[C@@H](O)[C@@H](O)[C@H](O)[C@@H](CO)N2C1=O [kifunensine] | did not significantly alter MNoV^CW3 binding | significantly reduced cell surface carbohydrates |  |  |  |  |  | 
sCD300lf: recombinant, soluble ectodomain of mouse CD300lf (residues 20-128 of GenBank AAH57864.1), expressed in E. coli and refolded (protein) MEDPVTGPEEVSGQEQGSLTVQCRYTSGWKDYKKYWCQGVPQRSCKTLVETDASEQLVKKNRVSIRDNQRDFIFTVTMEDLRMSDAGIYWCGITKGGLDPMFKVTVNIGP |  |  | remained sensitive to sCD300lf inhibition | inhibited | neutralized MNoV^CW3-induced cytopathic effect | not further inhibited | reduced MNoV binding | able to protect from MNoV induced lethality
